According to US20260274955A1 (JANUX THERAPEUTICS, published 2026):

B1: Phage-833 (peptide)
peptide: YCEGHFGMYMSKCL
B2: Phage-858 (peptide)
peptide: YCQGHSELYMSKCL
B3: Phage-876 (peptide)
peptide: YCAGHDAEYMQKCL
B4: Phage-882 (peptide)
peptide: YCDGHSQIYMSKCL
B5: Phage-834 (peptide)
peptide: YCAGHMPQYMSKCL
B6: Phage-853 (peptide)
peptide: YCSGHLPMYMAKCL
B7: Phage-883 (peptide)
peptide: YCDGHWPGYLWKCL
B8: Phage-865 (peptide)
peptide: YCDGHLETYMQKCL
B9: Phage-875 (peptide)
peptide: YCEGHIKDYMTKCL
B10: Phage-862 (peptide)
peptide: YCDGHIMPYLDKCL
B11: Phage-828 (peptide)
peptide: YCAGHIGEYMDKCL
B12: Phage-844 (peptide)
peptide: YCEGHLPQYLAKCY
B13: Phage-867 (peptide)
peptide: YCEGHLDEYLQKCM
B14: Phage-863 (peptide)
peptide: YCEGHKKEYMLKCL
B15: Phage-843 (peptide)
peptide: YCDGHEPQYMTKCL
B16: Phage-839 (peptide)
peptide: YCDGHLPRFMVKCL
B17: Phage-870 (peptide)
peptide: YCDGHAAMYMSKCL
B18: Phage-837 (peptide)
peptide: YCEGHLPWYMSKCL
B19: Phage-857 (peptide)
peptide: YCEGHIGDYIAKCL
B20: Phage-832 (peptide)
peptide: YCAGHSVQYMYKCL
B21: Phage-859 (peptide)
peptide: YCDGHTPQFRAKCL
B22: Phage-860 (peptide)
peptide: YCEGHLQEYMGKCL
B23: Phage-873 (peptide)
peptide: YCAGHIPQYLNKCL
B24: Phage-836 (peptide)
peptide: YCAGHLPQYVSKCL
B25: Phage-869 (peptide)
peptide: YCEGHVPQYMGKCL
B26: Phage-855 (peptide)
peptide: YCDGHIEMYMSKCM
B27: Phage-879 (peptide)
peptide: YCDGHDEQYLMKCL
B28: Phage-847 (peptide)
peptide: YCDGHMDAYMSKCL
B29: Phage-842 (peptide)
peptide: YCVGHLPLYMPNCL
B30: Phage-848 (peptide)
peptide: YCMGHSAEYMGKCL
B31: Phage-849 (peptide)
peptide: YCDGHAWWYMEKCL
B32: Phage-866 (peptide)
peptide: YCQGHLPIYIQKCL
B33: Phage-854 (peptide)
peptide: YCEGHLAVHMSKCL
B34: Phage-868 (peptide)
peptide: YCAGHTTEYIVKCL
B35: Phage-838 (peptide)
peptide: YCDGHHLEYIDKCL
B36: Phage-830 (peptide)
peptide: YCDGHNPVYLAKCL
B37: Phage-831 (peptide)
peptide: YCEGHAQQYMLKCL
B38: Phage-851 (peptide)
peptide: YCEGHAQMYMLKCL
B39: Phage-872 (peptide)
peptide: YCAGHAQEYMRKCL
B40: Phage-871 (peptide)
peptide: YCEGHLGLYMKKCL
B41: Phage-850 (peptide)
peptide: YCDGHAAWYLQKCL
B42: Phage-846 (peptide)
peptide: YCEGHAAVYMHKCL
B43: Phage-878 (peptide)
peptide: YCEGHAPVYMQKCL
B44: Phage-829 (peptide)
peptide: YCDGHAGIYVLKCL
B45: Phage-841 (peptide)
peptide: YCEGHMSEYMRKCL
B46: Phage-840 (peptide)
peptide: YCQGHAPWYMVKCL
B47: Phage-852 (peptide)
peptide: YCEGHSRQYMEKCM
B48: Phage-835 (peptide)
peptide: YCQGHALQYLQKCL
B49: Phage-861 (peptide)
peptide: YCDGHVTEYMAKCL
B50: Phage-874 (peptide)
peptide: YCDGHSTEYMWKCL
B51: Phage-864 (peptide)
peptide: YCEGHVELYRQKCL
B52: Phage-877 (peptide)
peptide: YCEGHMQWYMAKCL

Legend:
[1] = target: Anti-CD28 Fab (SEQ ID NOs: 202, 203); assay: phage binding ELISA on captured Fab, competitor CD28 antigen;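 note: clonal phage supernatant binding in wells preincubated with CD28 antigen in blocking buffer, detected by HRP-conjugated anti-M13 antibody ELISA, compared with blocking buffer alone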
Sequence of Anti-CD28 Fab (SEQ ID NOs: 202, 203) (VH, as listed by the source, chain 1 of 2): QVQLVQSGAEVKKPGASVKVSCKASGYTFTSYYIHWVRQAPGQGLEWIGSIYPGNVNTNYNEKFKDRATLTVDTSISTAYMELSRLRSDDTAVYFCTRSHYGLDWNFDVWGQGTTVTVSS
Sequence of Anti-CD28 Fab (SEQ ID NOs: 202, 203) (VL, as listed by the source, chain 2 of 2): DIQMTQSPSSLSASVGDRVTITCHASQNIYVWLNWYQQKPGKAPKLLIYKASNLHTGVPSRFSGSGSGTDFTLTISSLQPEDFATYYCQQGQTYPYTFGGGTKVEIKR
Experimental: (§1) Clonal phage were harvested as crude supernatants and screened via standard ELISAs. […] Prior to the addition of clonal phage, wells were incubated with blocking buffer and CD28 antigen or blocking buffer alone. Without washing or aspirating, clonal phage supernatants were then added to the wells and incubated for a short time. Wells were then washed followed by detection of bound phage using a horse radish conjugated anti-M13 antibody.

[2] = target: Anti-CD28 Fab (SEQ ID NOs: 202, 203); assay: phage binding ELISA on captured Fab;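 note: clonal phage supernatants added briefly to wells pre-incubated with CD28 antigen or with blocking buffer only, then washed, bound phage read by ELISA using HRP-coupled anti-M13 antibody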
Experimental: as §1

Binder | Anti-CD28 Fab signal in the presence of CD28 [1] | Anti-CD28 Fab (SEQ ID NOs: 202, 203) signal [2]
B1 | 0.07 | 0.73
B2 | 0.08 | 0.6
B3 | 0.06 | 0.46
B4 | 0.06 | 0.42
B5 | 0.05 | 0.72
B6 | 0.13 | 0.62
B7 | 0.06 | 0.42
B8 | 0.08 | 0.53
B9 | 0.08 | 0.47
B10 | 0.05 | 0.57
B11 | 0.58 | 0.75
B12 | 0.08 | 0.67
B13 | 0.08 | 0.51
B14 | 0.08 | 0.56
B15 | 0.1 | 0.68
B16 | 0.07 | 0.69
B17 | 0.07 | 0.5
B18 | 0.09 | 0.69
B19 | 0.36 | 0.61
B20 | 0.06 | 0.74
B21 | 0.07 | 0.59
B22 | 0.25 | 0.58
B23 | 0.07 | 0.49
B24 | 0.06 | 0.7
B25 | 0.08 | 0.5
B26 | 0.06 | 0.61

Binder | Anti-CD28 Fab signal in the presence of CD28 [1] | Anti-CD28 Fab (SEQ ID NOs: 202, 203) signal [2]
B27 | 0.07 | 0.44
B28 | 0.06 | 0.65
B29 | 0.11 | 0.68
B30 | 0.06 | 0.64
B31 | 0.06 | 0.64
B32 | 0.07 | 0.51
B33 | 0.06 | 0.62
B34 | 0.05 | 0.5
B35 | 0.06 | 0.69
B36 | 0.08 | 0.74
B37 | 0.05 | 0.74
B38 | 0.06 | 0.64
B39 | 0.07 | 0.49
B40 | 0.06 | 0.49
B41 | 0.07 | 0.64
B42 | 0.09 | 0.67
B43 | 0.08 | 0.44
B44 | 0.08 | 0.75
B45 | 0.1 | 0.69
B46 | 0.08 | 0.69
B47 | 0.33 | 0.63
B48 | 0.08 | 0.71
B49 | 0.07 | 0.58
B50 | 0.06 | 0.49
B51 | 0.06 | 0.56
B52 | 0.09 | 0.45
